From article PMC6771595

Key:
[1] = target: PptA, phosin (polyP-targeting protein) from Streptomyces chartreusis (Streptomyces chartreusis); test: SEC
[2] = target: PptA, phosin (polyP-targeting protein) from Streptomyces chartreusis (Streptomyces chartreusis); test: SAXS

## PptA, phosin (polyP-targeting protein) from Streptomyces chartreusis (natural protein)
[1]
  stoichiometry N: 2
[2]
  stoichiometry N: 2
